This note sets out measurements from article PMC6204900.

pKd: −log10 of the molar value.

Test [1] deals with insulin receptor isoform B (human) (UniProt P06213). Nature of the test: radioligand binding; whole-cell receptor-binding assay on IGF-1R null mouse embryonic fibroblasts stably transfected with human IR-B; each binding curve in duplicate, Kd from at least three curves; details in the supporting information.
In test [2] the target is insulin receptor isoform A (human (endogenous in IM-9)) (UniProt P06213). Nature of the test: radioligand binding; whole-cell receptor-binding assay on human IM-9 lymphocytes (containing IR-A); each binding curve in duplicate, Kd from at least three curves; details in the supporting information.
Test [3] addresses IGF-1 receptor (in transfected mouse embryonic fibroblasts R+39) (human) (UniProt P08069). Nature of the test: radioligand binding; whole-cell receptor-binding assay on IGF-1R null mouse embryonic fibroblasts stably transfected with human IGF-1R; each binding curve in duplicate, Kd from at least three curves; details in the supporting information.
The target is the same in test [4].
Test [5] concerns the target human insulin receptor isoform A (IR-A) on IM-9 lymphocytes (human (endogenous in IM-9)) (UniProt P06213). The test is described as follows: radioligand binding; association kinetics; IM-9 cells (10^7/mL) in HEPES binding buffer pH 7.6 with about 0.03 nM 125I-labelled ligand at 15 °C; cells pelleted at time points; fit: association kinetics, one concentration of hot (GraphPad Prism 5) with the dissociation rate set; apparent constants.

The target in test [6] is human IGF-1 receptor (IGF-1R) on CHO-K1 cells stably transfected with pcDNA3-IGF-1R (human) (UniProt P08069). Nature of the test: radioligand binding; dissociation kinetics without cold ligand; CHO-R+ cells (3x10^7/mL) preincubated with about 0.03 nM 125I-labelled ligand at 15 °C ([…] analog and IGF-1, 7 h insulin), washed, diluted 40 times, 15 °C; one phase exponential decay.

For test [7], the target named is human insulin receptor isoform A (IR-A) on IM-9 lymphocytes (human (endogenous in IM-9)) (UniProt P06213). Nature of the test: radioligand binding; dissociation kinetics without cold ligand; IM-9 cells (3x10^7/mL) preincubated with about 0.03 nM 125I-labelled ligand at 15 °C ([…] insulin and analog, 4 h IGF-1), washed, diluted 40 times, 15 °C; one phase exponential decay.

Test [8] has as its target human IGF-1 receptor (IGF-1R) on CHO-K1 cells stably transfected with pcDNA3-IGF-1R (human) (UniProt P08069). The test is described as follows: radioligand binding; association kinetics; CHO-R+ cells (10^7/mL) in HEPES binding buffer pH 7.6 with about 0.03 nM 125I-labelled ligand at 15 °C; cells pelleted at time points; fit: association kinetics, one concentration of hot (GraphPad Prism 5) with the dissociation rate set; apparent constants.

The pKd is the Kd on a negative log10 scale, so that one unit is a factor of ten. A higher pKd goes with a small Kd. Broadly, the kon is the rate constant with which the complex forms. What is called koff is the first-order rate constant of dissociation.

Sequence of [Gly^B31, Tyr^B32]-insulin (P01308 90-110): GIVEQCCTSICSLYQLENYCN
Sequence of [Gly^B31, Tyr^B32]-insulin (P01308 other isoform, or with tags, fused parts or gaps): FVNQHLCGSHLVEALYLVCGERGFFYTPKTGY

Consider “insulin-like growth factor 2 (from UniProt P01344 25-91) (ligand)”, for which the pKd in test [1] was 7.45; in test [2], 8.53; in test [3] it was 8.63.
With “human insulin-like growth factor 1 (from UniProt P05019 49-118) (ligand)”, the pKd in test [1] was 6.65; in test [2], 7.50.
The substance “[Gly^B31, Tyr^B32]-insulin (from UniProt P01308 90-110; P01308 25-54) (ligand)” gave an autophosphorylation of IGF-1R (immunoblot), IGF-1R-transfected mouse fibroblasts, 10 nM ligand, against insulin; not significant in the analysis of variance in test [4] of 3 fold.
Regarding “125I-[D-HisB24, GlyB31, TyrB32]-insulin (ligand)”, the kon in test [5] was found to be 5.87e+07 M⁻¹ s⁻¹; in test [8], 7.83e+07 M⁻¹ s⁻¹. Besides, the koff was determined as 0.000107 s⁻¹ in test [6] and 2.83e-05 s⁻¹ in test [7].
“[D-His^B24]-des-(B27-B30)-tetrapeptide-B26-carboxamide insulin (from UniProt P01308 90-110) (ligand)” gave a pKd in test [1] of 9.52.
“[Tyr^B25, Phe^B26, Asn^B27, Lys^B28, Pro^B29, Gly^B31, Tyr^B32]-insulin (from UniProt P01308 90-110) (ligand)”: in test [4], the autophosphorylation of IGF-1R (immunoblot), IGF-1R-transfected mouse fibroblasts, 10 nM ligand, against insulin; not significant in the analysis of variance was found to be 3 fold.
Regarding “[D-His^B24, Gly^B31, Tyr^B32]-insulin (from UniProt P01308 90-110) (ligand)”, in test [3], the pKd is 9.05.
